{"source": "patent US6383734B1", "about": "“Method to determine inhibition of PAK3 activation of Raf-1” (Advanced Research and Technology Institute, Inc., priority 1998, dated 2002)", "key": {"Raf-1 serine 338/339": {"system": "Raf-1 serine 338/339", "test": "In vitro kinase assay with Raf-1 peptide and Raf-CR3 as substrates", "assay_type": "biochemical, human", "experimental": "(§1) B. Kinase assays. Kinase samples were assessed for their ability to phosphorylate 500 μM Raf-1 peptide (33,[…]345) (SEQ ID NO:4) in the presence of 500 μMATP (containing 2 μCi [γ-^32P]-ATP at 30° C. for 10 minutes. Incubations were analyzed by P-81 phosphocellulose paper assay. Phosphorylation of serine 338/339 in Raf-CR3 was determined by similar incubations containing 1 μg of substrate at 30° C. for 30-60 minutes. Proteins were resolved by SDS-PAGE, transferred to Immobilon-P and the dried, Ponceau S-stained membranes were autoradiographed. Raf-1 kinase activity was measured by the coupled assay method using GST-Mek 1, GST-Erk1 and myelin basic protein by the method of D. Stokoe et al., Science, 264, 1463 (1994).\nD. Expression of recombinant Raf-CR3 in E. Coli. DNA sequences encoding residues 307-648 of human c-Raf-1 were amplified by polymerase chain reaction using the 5′-primer […] (SEQ ID NO:5) and the 3′-primer […] (SEQ ID NO:6). The amplified DNA was purified, digested with EcoRI and XhoI and cloned into the Stratagene pCAL-n vector. The entire Raf-CR3 coding sequence was verified by termination reaction PCR DNA sequencing. Raf-CR3 D338E339 and A338A339 substitution mutants were generated by site-directed mutagenesis using the Promega Altered SitesTM in vitro mutagenesis system. Raf-CR3-calmodulin binding protein fusions were expressed in E. coli strain BL21 (pLysS). […]"}, "Raf-1": {"target": "T1, Raf-1 (Homo sapiens, UniProt P04049)", "T1 construct": "expressed in transfected cells; host or cells: COS-7", "test": "Raf kinase activity after co-transfection of PAK3 constructs with Raf-1 (with or without Ras[V12]) into COS-7 cells", "assay_type": "cell-based", "experimental": "as §1\nF. Transfections. COS-7 cells were transfected with 10 μg of each plasmid DNA (pcEXV3 containing Ras^[V12], myc-Raf, myc-Raf-CX or pJ3H containing PAK3) by electroporation. Cells were lysed three days post-transfection in the presence of protease and phosphatase inhibitors and Raf-1 kinase activity was then examined as described by Stokoe et al., cited above. Transfection/expression efficiencies were assessed by densitometric scanning of Western blots of immunoprecipitates as well as cell lysates and data sets were normalized accordingly."}}}
{"substance": "Recombinant PAK3: recombinant His-tagged mouse PAK3 from Sf9 cells", "values": [{"measurement": "stimulation of Raf-1 peptide and Raf-CR3 serine 338/339 kinase activity by GTPase", "setting": "Raf-1 serine 338/339; co-incubation with GST-Rac-GTPγS or GST-Cdc42-GTPγS, FIGS. 4c and 4d", "value": "stimulated up to six-fold"}]}
{"substance": "p37: 37-kD Raf-1 serine 338/339 kinase purified from rat spleen, a proteolytically cleaved catalytic domain of PAK3", "values": [{"measurement": "specific activity (Raf-1 peptide phosphorylation)", "setting": "Raf-1 serine 338/339; kinase purified from rat spleen, Mono-P eluate", "value": "19,500 pmol/min/mg"}]}
{"substance": "wild type PAK3: wild type p21-activated protein kinase PAK3, expressed from plasmid in COS-7 cells", "values": [{"measurement": "increase of Raf-CX or Ras[V12]-inducible Raf-1 activation on co-expression", "setting": "Raf-1", "value": "did not significantly increase"}]}
